Positions of bridges follow the written chain, without caps; N, C: chain ends. No end group written: not given here.
T1: MMP-2 (matrix metalloproteinase-2, gelatinase), purified enzyme (UniProt P08253 110-660, limits assumed)
T1 sequence (looked up): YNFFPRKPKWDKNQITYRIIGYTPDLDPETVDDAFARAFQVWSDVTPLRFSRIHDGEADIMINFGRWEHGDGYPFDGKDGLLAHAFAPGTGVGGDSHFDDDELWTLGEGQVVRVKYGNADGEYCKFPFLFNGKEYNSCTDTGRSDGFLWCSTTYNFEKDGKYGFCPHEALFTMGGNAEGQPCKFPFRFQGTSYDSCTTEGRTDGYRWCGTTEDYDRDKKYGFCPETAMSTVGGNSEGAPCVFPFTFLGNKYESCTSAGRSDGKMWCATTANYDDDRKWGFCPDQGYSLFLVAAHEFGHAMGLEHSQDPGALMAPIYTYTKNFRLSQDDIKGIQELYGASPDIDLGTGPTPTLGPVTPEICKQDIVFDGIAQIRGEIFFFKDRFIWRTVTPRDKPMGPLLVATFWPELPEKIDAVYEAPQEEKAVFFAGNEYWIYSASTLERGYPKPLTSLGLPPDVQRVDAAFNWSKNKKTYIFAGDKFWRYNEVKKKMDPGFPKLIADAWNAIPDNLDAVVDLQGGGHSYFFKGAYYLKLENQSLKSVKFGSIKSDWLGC


Key:
Experiment in all cases: cell-based or functional assay
[1] = biological target: T1, MMP-2 (matrix metalloproteinase-2, …)
[2] = biological target: MMP-9 (matrix metalloproteinase-9, gelatinase), purified enzyme (UniProt P14780 107-707, limits assumed)
MMP-9 (matrix metalloproteinase-9, gelatinase), purified enzyme, sequence (P14780 107-707 limits assumed): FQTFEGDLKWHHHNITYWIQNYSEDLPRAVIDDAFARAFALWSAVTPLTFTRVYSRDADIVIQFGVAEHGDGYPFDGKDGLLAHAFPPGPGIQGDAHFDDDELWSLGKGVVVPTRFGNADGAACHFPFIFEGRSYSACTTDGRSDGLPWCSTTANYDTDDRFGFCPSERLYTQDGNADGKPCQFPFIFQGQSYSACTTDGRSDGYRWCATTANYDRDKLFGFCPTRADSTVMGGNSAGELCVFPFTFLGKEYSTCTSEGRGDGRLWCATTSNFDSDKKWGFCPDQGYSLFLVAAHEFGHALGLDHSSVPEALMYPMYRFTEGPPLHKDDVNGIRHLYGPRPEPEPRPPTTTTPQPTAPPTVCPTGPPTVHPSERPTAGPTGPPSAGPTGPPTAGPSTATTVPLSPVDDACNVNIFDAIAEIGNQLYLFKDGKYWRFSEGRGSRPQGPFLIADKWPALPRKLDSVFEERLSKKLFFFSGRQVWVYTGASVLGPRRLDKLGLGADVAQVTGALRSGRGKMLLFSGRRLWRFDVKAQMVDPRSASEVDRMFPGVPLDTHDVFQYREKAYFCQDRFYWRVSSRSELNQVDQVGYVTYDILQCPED

[3] = biological target: cell surface-bound gelatinases (of HT1080 cells)

Row | Binder | inhibition of MMP-2 activity, casein zymography (area digested), peptide at 85 uM [1] [% inhibition] | IC50 of inhibition of MMP-9 activity, gelatinase assay with fluorogenic peptide substrate [2] [µM] | transfer of rhodamine B liposomes with CTT into HT1080 cells after preincubation with TIMP-2 (10 µg/ml) [3] [% inhibition]
1 | CLPGHWGFPSC (disulfide 1-11) [CLP peptide CLPGHWGFPSC] | 50 | – | –
2 | STTHWGFTLC [STT peptide … (linear analog of CTT)] | ~30 | – | –
3 | CTTHWGFTLC (disulfide 1-10; also: adsorbed non-covalently to POPC/POPE liposomes) [CTT peptide CTTHWGFTLC bound to POPC/POPE (80/20 mol/mol) liposomes] | – | 8 | –
4 | CTTHWGFTLC (disulfide 1-10; also: adsorbed non-covalently to POPC/POPE liposomes) [CTT peptide … bound to POPC/POPE (80/20 mol/mol) liposomes] | – | – | 50
5 | CTTHWGFTLC (disulfide 1-10) [CTT peptide CTTHWGFTLC (cyclic, free in solution)] | ~70 | 8 | –

Source: patent publication US20040213833A1 (published 2004)
